A word on the stoichiometry N: it is the number of molecules, sites or subunits per partner or assembly.

The results in this text go back to PMC11050165.

The experiment deals with Haemophilus influenzae tellurite-resistance protein A (HiTehA) (Haemophilus influenzae) (UniProt P44741). Put plainly: cryo-EM structure; single-particle cryo-EM at 200 kV (Glacios, Falcon 4) of purified HiTehA at 3.0 mg/mL in detergent micelles (DDM, GDN, LMNG or OG); C3 symmetry imposed; no binding protein used.

“Haemophilus influenzae tellurite-resistance protein A (HiTehA) (from UniProt P44741 1-328) (natural protein)” displayed a stoichiometry N of 3.
